Measurements taken from publication PMC3582359 (Molecular cell, 2012).

Experiments:
[1] = target: GFP-250, a chimera of GFP with the cytosolic protein p115; assay: co-IP
[2] = target: recombinant GRP78 (19-654) Cys420 to Ala mutant (human, UniProt P11021 19-654, Cys420 (Cys to Ala)); assay: cross-linking
[3] = target: recombinant GRP78 (19-654) Cys41 to Ala mutant (human, UniProt P11021 19-654, Cys41 (Cys to Ala)); assay: cross-linking

Q: With “GRP78 (glucose-regulated protein 78), endogenous in mouse embryonic fibroblasts (from UniProt P20029 20-655) (natural protein)” as the molecule, how does the fold more GFP-250 interacting with GRP78 in WT MEFs than in NPGPx-/- MEFs [1] read?
A: 3 fold

B1: oxidized recombinant NPGPx (19-187) (natural protein, human, UniProt Q96SL4 19-187, looked up)
chain: AQQEQDFYDFKAVNIRGKLVSLEKYRGSVSLVVNVASECGFTDQHYRALQQLQRDLGPHHFNVLAFPCNQFGQQEPDSNKEIESFARRTYSVSFPMFSKIAVTGTGAHPAFKYLAQTSGKEPTWNFWKYLVAPDGKVVGAWDPTVSVEEVRPQITALVRKLILLKREDL
modifications: single disulfide bond between Cys57 and Cys86
Q: What does the source list for B1?
A: binding result [2]: binds; binding result [3]: binds
